The source of these data is patent US20200316233A1 (BOARD OF REGENTS OF THE UNIVERISTY OF NEBRASKA, published 2020).

Square brackets hold non-standard residues; d marks the D form. Ends that are not written are not given here.

The target of experiment [1] is T1, neurotensin receptor-1 (human, UniProt P30989 1-418).
T1 construct: whole, on cells; Endogenous receptor on the NTSR1-positive HT-29 human colon cancer cell line; also called NTR1; NTSR1
As to the kind of experiment: competition with 177Lu-N1 on HT-29 cells. As to the method:
(§1) The IC₅₀ for the unlabeled conjugates binding to the neurotensin receptors was determined using the HT-29 human colon cancer cell line. In these studies, ¹⁷⁷Lu-N1 (¹⁷⁷Lu-DOTA-β-Ala-[N-α-Me⁸, Dmt¹¹, Tle¹²]NT(6-13)), which was synthesized according to published methods (Jia, et al. (2015) Nucl. Med. Biol., 42:816), served as the competitive radioligand for comparing the relative binding affinities of the conjugates. […] At the end of the incubation, the cells were centrifuged, aspirated, and washed with fresh medium (5×500 μL). The cell-associated radioactivity was measured using gamma counter and the IC₅₀ values determined by nonlinear regression using GraphPad Prism 5. All measurements were in biological triplicate.

Experiment [2] concerns the target T1, neurotensin receptor-1. As to the kind of experiment: competitive binding to NTR1. On the procedure:
as §1

As a reminder, the IC50 is the concentration at which inhibition is half-maximal. A lower IC50 goes with greater potency.

T1 sequence (P30989 whole entry): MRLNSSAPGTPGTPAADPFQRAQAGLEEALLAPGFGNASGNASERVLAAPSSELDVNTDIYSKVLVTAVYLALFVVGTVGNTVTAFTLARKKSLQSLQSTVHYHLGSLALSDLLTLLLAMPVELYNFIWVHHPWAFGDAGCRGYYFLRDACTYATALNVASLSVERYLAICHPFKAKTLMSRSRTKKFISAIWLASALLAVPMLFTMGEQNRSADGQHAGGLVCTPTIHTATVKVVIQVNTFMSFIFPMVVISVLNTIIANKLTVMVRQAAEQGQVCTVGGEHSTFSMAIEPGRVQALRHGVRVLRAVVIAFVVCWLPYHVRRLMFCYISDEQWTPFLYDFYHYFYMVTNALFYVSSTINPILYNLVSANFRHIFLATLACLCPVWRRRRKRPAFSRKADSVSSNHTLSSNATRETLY

B1: 3a (peptide)
peptide: KPRRPYIL
modifications: not fully specified; also: N-terminal DOTA, X linker PEG3, Y linker β-Ala, N-Me-Arg, Dmt, Tle building blocks, places not given here
notes: matched control of 2c; also called compound 3a
In the case of B1, the IC50 with neurotensin receptor-1 [1] worked out at 49 nM.

B2: 3b (peptide)
peptide: [dS][dS][dS]KPRRPYIL
modifications: not fully specified; also: N-terminal DOTA, X linker Gly-(D)Ser3, N-Me-Arg, Dmt, Tle building blocks, places not given here
notes: matched control of 2f; also called compound 3b
Regarding B2, the IC50 in the experiment with neurotensin receptor-1 [1] was found to be 52 nM.

B3: Ec (peptide)
peptide: KPRRPYIL
modifications: not fully specified; also: DOTA on the peptide, linkers and non-natural residues not given here
In turn, B3 showed an IC50 with neurotensin receptor-1 [2] of 63 nM.
